Assay results: patent US20260146093A1 (DREN BIO MANAGEMENT, published 2026)
Where two headings read alike, the source gives them in different places. One block for each binder: values may come before it.

Key:
[1] = target: human Dectin-1 on HEK cells expressing hDectin-1 (human) (UniProt Q9BXN2); assay: flow cytometry on HEK cells expressing hDectin-1 (sheet title: Binding to hDec1 on Hek)
[2] = target: T1, human Trop-2 expressed on cells (A-431, NCI-N87, SKBR3, CHO-K1-hTrop2) (human, UniProt P09758 27-323); assay: flow cytometry on A431 cells expressing hTrop-2
T1 sequence: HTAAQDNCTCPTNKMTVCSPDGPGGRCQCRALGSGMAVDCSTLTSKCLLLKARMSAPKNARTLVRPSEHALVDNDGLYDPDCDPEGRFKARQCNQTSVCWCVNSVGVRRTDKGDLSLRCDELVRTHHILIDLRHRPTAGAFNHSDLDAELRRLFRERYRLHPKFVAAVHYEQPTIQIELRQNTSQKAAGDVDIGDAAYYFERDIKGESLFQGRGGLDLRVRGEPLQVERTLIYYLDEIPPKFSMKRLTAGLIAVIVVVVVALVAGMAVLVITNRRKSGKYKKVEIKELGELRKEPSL

[3] = target: T2, human Dectin-1 isoform A on HEK-Blue hDectin-1a cells (human, UniProt Q9BXN2 1-247); assay: cell-based or functional assay
T2 sequence: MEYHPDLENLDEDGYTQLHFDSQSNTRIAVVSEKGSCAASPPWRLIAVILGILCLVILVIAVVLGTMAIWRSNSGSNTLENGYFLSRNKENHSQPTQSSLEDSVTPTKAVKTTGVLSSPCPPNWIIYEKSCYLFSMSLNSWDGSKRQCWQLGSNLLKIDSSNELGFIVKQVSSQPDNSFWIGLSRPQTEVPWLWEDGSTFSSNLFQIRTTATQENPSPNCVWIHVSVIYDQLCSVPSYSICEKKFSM

[4] = target: T1, human Trop-2 expressed on cells (A-431, …); assay: flow cytometry on A-431 cells, fluorescent anti-human secondary antibody
Description: (§1) FIGS. 2A-2D show binding assays in which cells expressing human Trop-2 were incubated with anti-Dectin-1 x anti-Trop-2 bispecific antibodies with human IgG1 Fc (as indicated) or isotype control, and binding was measured by flow cytometry using a fluorescently labeled anti-human secondary antibody. Shown are binding of the indicated antibodies to human epidermoid carcinoma A-431 cells (FIG. 2A), human gastric carcinoma NCI-N87 cells (FIG. 2B), human breast cancer SKBR3 cells (FIG. 2C), or CHO-K1 cells expressing human Trop-2 (FIG. 2D).
(§2) Human cancer cell lines and CHO cells expressing human Trop-2 (CHO-K1-hTrop2 cells) were incubated with the anti-Dectin-1 x anti-Trop-2 bispecific antibodies, Trop-2 clones 15, 45, 76, 77, 63, 64, 65 and 123, or the hIgG1 isotype, followed by a fluorescent anti-human secondary antibody. The primary antibodies were used in an 8-point serial dose titration starting at 300 or 100 nM and diluted 1 to 3.

[5] = target: T1, human Trop-2 expressed on cells (A-431, …); assay: cell-based or functional assay
[6] = target: T1, human Trop-2 expressed on cells (A-431, …); assay: flow cytometry on SKBR3 cells, fluorescent anti-human secondary antibody
Description: as §1, §2

[7] = target: T3, Human Trop-2 ECD protein (human, UniProt P09758 27-274); assay: BLI, hTrop-2 ECD captured via anti-HIS Tag, bispecific antibody in solution (monovalent)
T3 construct: also called hTrop-2 ECD; not shown: HIS tag (captured on the biosensor via anti-HIS Tag)
T3 sequence: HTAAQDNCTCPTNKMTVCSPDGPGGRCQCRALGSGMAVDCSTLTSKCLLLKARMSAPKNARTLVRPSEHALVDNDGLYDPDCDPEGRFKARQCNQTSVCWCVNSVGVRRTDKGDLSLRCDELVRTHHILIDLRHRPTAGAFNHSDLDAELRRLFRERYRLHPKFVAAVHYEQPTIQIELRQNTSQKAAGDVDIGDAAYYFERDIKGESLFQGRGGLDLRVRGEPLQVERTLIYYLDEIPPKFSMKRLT
Description: Monovalent binding affinity was measured by biosensor (BLI). Human Trop-2 ECD protein was captured on biosensor via anti-HIS Tag. On and off rate binding was measured against bispecific antibodies with 1 arm binding to hTrop2 at varying concentrations. On rate and off rate measurements were fitted to generated KD values.
Monovalent binding affinity of each anti-Dectin-1 x anti-Trop-2 bispecific antibody to the human Trop-2 ECD was also measured by biosensor (BLI).

[8] = target: T1, human Trop-2 expressed on cells (A-431, …); assay: flow cytometry on CHO-K1-hTrop2 cells, fluorescent anti-human secondary antibody
Description: as §1, §2

[9] = target: T1, human Trop-2 expressed on cells (A-431, …); assay: flow cytometry on NCI-N87 cells, fluorescent anti-human secondary antibody
Description: as §1, §2

[10] = target: T2, human Dectin-1 isoform A on HEK-Blue …; assay: cell-based or functional assay; remark: listed apart in the source
[11] = target: T1, human Trop-2 expressed on cells (A-431, …); assay: flow cytometry on CHO-K1 cells expressing hTrop-2 (sheet title: Binding to Chok1 hTrop2)
[12] = target: T2, human Dectin-1 isoform A on HEK-Blue …; assay: cell-based or functional assay; remark: listed apart in the source

- EC50 (read off the curve) [1]: 4 nM
- binding result [2]: binds
- EC50 of SEAP secretion by the hDectin-1 reporter cells (hDec1 Reporter Assay; the Trop-2-expressing cell line is not named) [3]: 1.46 nM
B1: Dectin-1 2M24.131 x Trop-2 clone A hIgG1 (bispecific antibody)
anti-Dectin-1 scFv-Fc arm: QVQLVQSGAEVKKPGASVKVSCKASGYTFTDYYMHWVRQAPGQGLEWMGWINPNEGDTNYAQKFEGRITMTRDTSISTAYMELSRLRSDDTAVYYCARNTGAYSFGYWGCGTLVTVSSGGGGSGGGGSGGGGSGGGGSDIQMTQSPSSVSASVGDRVTITCRASQGISSWLAWYQQKPGKCPKLLIYGASDLQSGVPSRFSGSGSGTDFTLTISSLQPEDFATYYCQQAYGFPFTFGPGTKVDIKEPK
anti-Trop-2 heavy chain: QVQLQQSGSELKKPGASVKVSCKASGYTFTNYGMNWVKQAPGQGLKWMGWINTYTGEPTYTDDFKGRFAFSLDTSVSTAYLQISSLKADDTAVYFCARGGFGSSYWYFDVWGQGSLVTVSS
anti-Trop-2 light chain: DIQLTQSPSSLSASVGDRVSITCKASQDVSIAVAWYQQKPGKAPKLLIYSASYRYTGVPDRFSGSGSGTDFTLTISSLQPEDFAVYYCQQHYITPLTFGAGTKVEIK
notes: member of group m8; also called 2M24.131xTrop-2 clone A hG1; scFv-format anti-Dectin-1 x anti-Trop-2 bispecific, clone A

- EC50 (read off the curve) [1]: 3 nM
- binding result [2]: binds
- EC50 of SEAP secretion by the hDectin-1 reporter cells (hDec1 Reporter Assay; the Trop-2-expressing cell line is not named) [3]: 1.49 nM
B2: Dectin-1 2M24.131 x Trop-2 clone C hIgG1 (bispecific antibody)
anti-Dectin-1 scFv-Fc arm: QVQLVQSGAEVKKPGASVKVSCKASGYTFTDYYMHWVRQAPGQGLEWMGWINPNEGDTNYAQKFEGRITMTRDTSISTAYMELSRLRSDDTAVYYCARNTGAYSFGYWGCGTLVTVSSGGGGSGGGGSGGGGSGGGGSDIQMTQSPSSVSASVGDRVTITCRASQGISSWLAWYQQKPGKCPKLLIYGASDLQSGVPSRFSGSGSGTDFTLTISSLQPEDFATYYCQQAYGFPFTFGPGTKVDIKEPK
anti-Trop-2 heavy chain: QVQLVQSGSELKKPGASVKLSCKASGYTFTSYGMNWVRQAPGQGLEWMGWINTNTGNPTYAQGFTGRFVFSLDTSVSTAYLQISSLKAEDTAVYYCARGYNWNDGDFDYWGQGTLVTVSS
anti-Trop-2 light chain: AIQMTQSPSSLSPSVGDRVTITCRASQGIRNDLGWYQQKPGKAPKLLIFAASSLQSGVPSRFSGSGSGTDFTLTISNLQPEDFATYYCLQNYNYPLTFGGGTKVEIK
notes: member of group m8; also called 2M24.131xTrop-2 clone C hG1; scFv-format anti-Dectin-1 x anti-Trop-2 bispecific, clone C

- EC50 [4]: 6.12 nM
- Induction of phagocytosis in vitro of A-431 cells by human macrophages, EC50 [5]: 0.31 nM
- Induction of phagocytosis in vitro of NCI-N87 cells by human macrophages, EC50 [5]: 0.2 nM
- Induction of phagocytosis in vitro of SKBR3 cells by human macrophages, EC50 [5]: 0.507 nM
- EC50 [6]: 18.5 nM
- Kd [7]: 4.12 nM
- koff [7]: 0.000891 s⁻¹
- kon [7]: 217000 M⁻¹ s⁻¹
- EC50 [8]: 3.78 nM
- EC50 [9]: 11.7 nM
- Dectin-1 pathway activation (SEAP secretion), HEK-Blue hDectin-1a cells in the presence of A-431 cells, EC50 [10]: 0.05 µg/mL
- Dectin-1 pathway activation (SEAP secretion), HEK-Blue hDectin-1a cells in the presence of CHO-K1-hTrop2 cells, EC50 [10]: 0.06 µg/mL
- Dectin-1 pathway activation (SEAP secretion), HEK-Blue hDectin-1a cells in the presence of NCI-N87 cells, EC50 [10]: 0.04 µg/mL
- Dectin-1 pathway activation (SEAP secretion), HEK-Blue hDectin-1a cells in the presence of SKBR3 cells, EC50 [10]: 0.04 µg/mL
B3: 2M24 × Trop-2 clone A hG1 (bispecific antibody, V domains shown)
VH 1: QVQLVQSGAEVKKPGASVKVSCKSSGYTFTDYYIHWVRQAPGQGLEWMGWINPNSGDTNYAQKFQGRITMTRDTSISTAYLELSRLRSDDTAVFYCARNSGSYSFGYWGQGTLVTVSS
VL 1: DIQMTQSPSSVSASVGDRVTITCRASQGISSWLAWYQQKPGKAPKLLIFGASSLQSGVPSRFSGSGSGTDFTLTVSSLQPEDFATYYCQQAYSFPFTFGPGTKVDIE
VH 2: QVQLQQSGSELKKPGASVKVSCKASGYTFTNYGMNWVKQAPGQGLKWMGWINTYTGEPTYTDDFKGRFAFSLDTSVSTAYLQISSLKADDTAVYFCARGGFGSSYWYFDVWGQGSLVTVSS
VL 2: DIQLTQSPSSLSASVGDRVSITCKASQDVSIAVAWYQQKPGKAPKLLIYSASYRYTGVPDRFSGSGSGTDFTLTISSLQPEDFAVYYCQQHYITPLTFGAGTKVEIK
notes: also called anti-Dectin-1 x anti-Trop-2 bispecific antibody

- EC50 (read off the curve) [1]: 3 nM
- binding result [2]: binds
- EC50 of SEAP secretion by the hDectin-1 reporter cells (hDec1 Reporter Assay; the Trop-2-expressing cell line is not named) [3]: 0.91 nM
B4: Dectin-1 2M24.131 x Trop-2 clone B hIgG1 (bispecific antibody)
anti-Dectin-1 scFv-Fc arm: QVQLVQSGAEVKKPGASVKVSCKASGYTFTDYYMHWVRQAPGQGLEWMGWINPNEGDTNYAQKFEGRITMTRDTSISTAYMELSRLRSDDTAVYYCARNTGAYSFGYWGCGTLVTVSSGGGGSGGGGSGGGGSGGGGSDIQMTQSPSSVSASVGDRVTITCRASQGISSWLAWYQQKPGKCPKLLIYGASDLQSGVPSRFSGSGSGTDFTLTISSLQPEDFATYYCQQAYGFPFTFGPGTKVDIKEPK
anti-Trop-2 heavy chain: QVQLQESGPGLVKPSGTLSLTCAVSGGSISSSNWWSWVRQPPGKGLEWIGEIYHDGSTDYFPSLKSRVTISVDKSKNQFSLKLSSVTAADTAVYYCARDNWGFDYWGQGTLVTVSS
anti-Trop-2 light chain: DIVLTQSPGTLSLSPGERATLSCRASQSVSSSYLAWYQQKPGQAPRLLISGASSRATGIPDRFSGSGSGTDFTLTISRLEPEDFAVYYCQQYGSSHRTFGQGTKVEIK
notes: member of group m8; also called 2M24.131xTrop-2 clone B hG1; scFv-format anti-Dectin-1 x anti-Trop-2 bispecific, clone B

- EC50 (read off the curve) [11]: ~9 nM
- EC50 of SEAP secretion by the hDectin-1 reporter cells (hDec1 Reporter Assay; the Trop-2-expressing cell line is not named) [12]: 0.69 nM
B5: Dectin-1 2M24.124 x Trop-2 clone C hIgG1 (bispecific antibody)
anti-Dectin-1 heavy chain: QVQLVQSGAEVKKPGASVKVSCKASGYTFTDYYMHWVRQAPGQGLEWMGWINPNEGDTNYAQKFEGRITMTRDTSISTAYMELSRLRSDDTAVYYCARNTGAYSFGYWGCGTLVTVSS
anti-Dectin-1 light chain: DIQMTQSPSSVSASVGDRVTITCRASQGISSWLAWYQQKPGKCPKLLIYGASDLQSGVPSRFSGSGSGTDFTLTISSLQPEDFATYYCQQAYGFPFTFGPGTKVDIK
anti-Trop-2 heavy chain: QVQLVQSGSELKKPGASVKLSCKASGYTFTSYGMNWVRQAPGQGLEWMGWINTNTGNPTYAQGFTGRFVFSLDTSVSTAYLQISSLKAEDTAVYYCARGYNWNDGDFDYWGQGTLVTVSS
anti-Trop-2 light chain: AIQMTQSPSSLSPSVGDRVTITCRASQGIRNDLGWYQQKPGKAPKLLIFAASSLQSGVPSRFSGSGSGTDFTLTISNLQPEDFATYYCLQNYNYPLTFGGGTKVEIK
notes: member of group m9; also called 2M24.124xTrop-2 clone C hG1; disulfide-engineered Fab-format bispecific, clone C
